Measurements published in paper PMC11550485 (Science (New York, N.Y.), 2023).

Target: 6×His-GFP-tau (human, UniProt P10636-8 1-441)
Assay: pull-down

B1: GST-TRIM11 (natural protein, human, UniProt Q96F44 1-468, looked up)
chain: MAAPDLSTNLQEEATCAICLDYFTDPVMTDCGHNFCRECIRRCWGQPEGPYACPECRELSPQRNLRPNRPLAKMAEMARRLHPPSPVPQGVCPAHREPLAAFCGDELRLLCAACERSGEHWAHRVRPLQDAAEDLKAKLEKSLEHLRKQMQDALLFQAQADETCVLWQKMVESQRQNVLGEFERLRRLLAEEEQQLLQRLEEEELEVLPRLREGAAHLGQQSAHLAELIAELEGRCQLPALGLLQDIKDALRRVQDVKLQPPEVVPMELRTVCRVPGLVETLRRFRGDVTLDPDTANPELILSEDRRSVQRGDLRQALPDSPERFDPGPCVLGQERFTSGRHYWEVEVGDRTSWALGVCRENVNRKEKGELSAGNGFWILVFLGSYYNSSERALAPLRDPPRRVGIFLDYEAGHLSFYSATDGSLLFIFPEIPFSGTLRPLFSPLSSSPTPMTICRPKGGSGDTLAPQ
Q: Does B1 bind?
A: Result: binds
